Consider one substance from article PMC2834417.

“And” between values parts separate entries of the source, which are not always exact repeats. Equal entries are not always repeated.

For the assay, the target named is Wild type Cav1.2 channel with EGFP fused to its C-terminus (rabbit) (UniProt P15381). The assay can be described thus: FRET or BRET. On the technique in general: In BRET a luciferase serves as donor, and the signal depends on an acceptor being close.
Chain of UniProt P15381 (P15381 whole entry, the tested form may be a part): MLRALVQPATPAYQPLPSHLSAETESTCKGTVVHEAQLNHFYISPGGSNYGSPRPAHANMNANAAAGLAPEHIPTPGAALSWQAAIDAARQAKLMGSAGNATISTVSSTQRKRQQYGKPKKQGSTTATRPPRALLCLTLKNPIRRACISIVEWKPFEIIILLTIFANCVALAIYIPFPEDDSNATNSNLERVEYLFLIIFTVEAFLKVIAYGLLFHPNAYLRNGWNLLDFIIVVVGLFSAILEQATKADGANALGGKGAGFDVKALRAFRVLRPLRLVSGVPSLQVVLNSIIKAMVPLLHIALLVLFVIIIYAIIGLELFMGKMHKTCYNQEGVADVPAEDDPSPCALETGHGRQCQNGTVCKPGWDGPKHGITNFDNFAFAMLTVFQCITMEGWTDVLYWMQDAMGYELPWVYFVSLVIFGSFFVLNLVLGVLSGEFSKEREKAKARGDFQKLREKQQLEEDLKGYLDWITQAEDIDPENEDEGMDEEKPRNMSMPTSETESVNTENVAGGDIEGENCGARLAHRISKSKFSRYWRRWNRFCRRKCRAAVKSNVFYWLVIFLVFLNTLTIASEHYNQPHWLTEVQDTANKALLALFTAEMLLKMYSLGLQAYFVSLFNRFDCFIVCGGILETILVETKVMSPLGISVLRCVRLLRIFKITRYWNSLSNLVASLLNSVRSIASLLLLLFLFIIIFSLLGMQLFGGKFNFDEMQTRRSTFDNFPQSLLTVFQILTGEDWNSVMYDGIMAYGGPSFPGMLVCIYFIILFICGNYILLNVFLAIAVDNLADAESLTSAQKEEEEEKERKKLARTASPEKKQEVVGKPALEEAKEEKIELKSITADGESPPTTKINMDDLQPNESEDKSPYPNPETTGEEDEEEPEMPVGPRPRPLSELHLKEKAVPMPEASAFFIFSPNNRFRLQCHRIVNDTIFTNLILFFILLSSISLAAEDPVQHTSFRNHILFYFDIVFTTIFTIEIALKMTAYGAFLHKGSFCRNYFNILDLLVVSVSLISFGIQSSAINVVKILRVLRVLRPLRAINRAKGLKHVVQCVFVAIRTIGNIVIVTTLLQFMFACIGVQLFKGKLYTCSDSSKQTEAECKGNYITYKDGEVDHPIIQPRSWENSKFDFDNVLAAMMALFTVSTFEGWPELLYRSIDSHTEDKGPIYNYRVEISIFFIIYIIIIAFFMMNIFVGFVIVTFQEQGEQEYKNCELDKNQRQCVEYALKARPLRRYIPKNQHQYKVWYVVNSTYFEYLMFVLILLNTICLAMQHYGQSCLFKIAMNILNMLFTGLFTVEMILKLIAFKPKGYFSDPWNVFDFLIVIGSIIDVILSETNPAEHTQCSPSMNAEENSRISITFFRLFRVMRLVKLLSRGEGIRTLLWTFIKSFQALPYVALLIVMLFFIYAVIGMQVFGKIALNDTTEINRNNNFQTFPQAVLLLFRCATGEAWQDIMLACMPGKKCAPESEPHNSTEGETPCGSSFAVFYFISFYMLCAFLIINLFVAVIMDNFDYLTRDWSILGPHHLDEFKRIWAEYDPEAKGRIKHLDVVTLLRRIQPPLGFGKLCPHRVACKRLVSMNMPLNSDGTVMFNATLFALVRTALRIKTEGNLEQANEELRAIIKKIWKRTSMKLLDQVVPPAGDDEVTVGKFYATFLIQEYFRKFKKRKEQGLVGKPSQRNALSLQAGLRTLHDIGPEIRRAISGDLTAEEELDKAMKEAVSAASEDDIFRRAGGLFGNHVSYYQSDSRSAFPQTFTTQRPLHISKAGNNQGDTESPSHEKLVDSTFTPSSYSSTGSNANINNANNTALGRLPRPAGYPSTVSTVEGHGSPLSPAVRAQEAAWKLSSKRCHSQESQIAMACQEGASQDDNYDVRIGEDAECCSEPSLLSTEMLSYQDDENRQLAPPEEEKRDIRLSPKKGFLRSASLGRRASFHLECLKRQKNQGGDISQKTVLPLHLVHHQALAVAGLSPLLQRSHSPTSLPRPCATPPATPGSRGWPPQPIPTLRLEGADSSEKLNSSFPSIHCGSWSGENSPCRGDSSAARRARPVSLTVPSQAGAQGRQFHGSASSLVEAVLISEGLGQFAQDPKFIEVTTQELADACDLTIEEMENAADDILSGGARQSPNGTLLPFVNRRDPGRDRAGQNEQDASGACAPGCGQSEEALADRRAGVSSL

In the case of “Calmodulin fused with tag-RFP (from UniProt P0DP23 1-149) (natural protein)”, the FRET was 0.32 and 0.21 and 0.33.
